Assay results reported in US20140079706A1 (published 2014).
Residue numbers refer to the chain shown, from its start.

Experiments:
[1] = biological target: CSF-1R on cynomolgous monocytes (cynomolgous); test: cell-based or functional assay
[2] = biological target: T1, human CSF-1R fragment D1-D3 (human, UniProt P07333 20-311); test: SPR Biacore T100, 37°C; antibody captured, D1-D3 injected, single cycle kinetics
T1 construct: Subcloned into pCMV-presS-HisAvitag expression vector
Protocol: Antibodies against CSF-1R were captured via amine coupled capture molecules. Using the single cycle kinetics five increasing concentrations of human CSF-1R fragment D1-D3 (SEQ ID NO: 66) were injected. Human CSF-1R fragment D1-D3 was subcloned into pCMV-presS-HisAvitag expression vector.
Single Cycle Kinetics was measured at a flow rate of 30 μL/min by five consecutive injections of the analyte with concentrations, c=7.8, 31.25, 125 500 and 2000 nM, without regeneration. Each injection was 30 seconds long and followed by a dissociation phase of 120 Seconds for the first four injections, and finally 1200 seconds for the highest concentration (=last injection).
Kinetic parameters were calculated by using the usual double referencing (control reference: binding of analyte to capture molecule; Flow Cell: subdomain CSF-1R concentration “0” as Blank) and calculation with model ‘titration kinetics 1:1 binding with draft’.

T1 sequence (P07333 20-311 limits assumed): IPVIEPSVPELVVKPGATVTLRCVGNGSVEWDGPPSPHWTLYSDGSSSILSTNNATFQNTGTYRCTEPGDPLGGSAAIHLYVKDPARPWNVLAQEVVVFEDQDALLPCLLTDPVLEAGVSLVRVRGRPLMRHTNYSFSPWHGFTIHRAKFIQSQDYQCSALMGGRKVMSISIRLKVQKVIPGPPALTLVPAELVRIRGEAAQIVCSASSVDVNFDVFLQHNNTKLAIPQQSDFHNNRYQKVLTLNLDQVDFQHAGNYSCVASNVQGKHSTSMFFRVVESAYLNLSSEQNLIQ

B1: Mab 2F11 (antibody, V domains shown)
VH: QVQLKESGPGLVAPSQSLSITCTVSGFSLTTYDISWIRQSPGKGLEWLGVIWTDGGTNYNSPFMSRLSIRKDNSKSQVFLKMNRLQTDDTAIYYCVRDQRLYFDVWGAGTTVTVSS
VL: NIVMTQSPKSMSMSVGERVTLNCKASEDVNTYVSWYQQQPEQSPKLLIYGASNRYTGVPDRFTGGGSTTDFTLTISSVQAEDLADYFCGQSFSYPTFGTGTKLEIK
notes: Murine monoclonal antibody from hybridoma; also called muMab 2F11
- % inhibition (of survival) = (100% - % survival), cynomolgous monocytes, 5 µg/ml antibody [1]: 96%
- % survival of cynomolgous monocytes at 5 µg/ml antibody (150 ng/ml huCSF-1, CellTiterGlo) [1]: 4%
- binding result [2]: no binding (tested: up to 2000 nM D1-D3)

B2: Mab 2E10 (antibody, V domains shown)
VH: QVQLKESGPGLVAPSKSLSITCTVSGSSLDSFDISWIRQSPGKGLEWLGVIWTGGGTNYNSGFMSRLRITKDNSKSQVLLKMNSLQSDDTAIYYCVRDPRLYFDVWGAGTTVTVSS
VL: B1 VL with N22S, N30V, Q39K, E41D, G65S, T68A, F87Y, S91T
notes: Murine monoclonal antibody
- % inhibition (of survival) = (100% - % survival), cynomolgous monocytes, 5 µg/ml antibody [1]: 83%
- % survival of cynomolgous monocytes at 5 µg/ml antibody (150 ng/ml huCSF-1, CellTiterGlo) [1]: 17%
- binding result [2]: no binding (tested: up to 2000 nM D1-D3)

B3: Mab 2H7 (antibody, V domains shown)
VH: B2 VH with S40P, T70S, L79F, N83S
VL: B1 VL with N22S, N30V, Q39K, G65S, T68A, V78I, F87Y, S91T
notes: Murine monoclonal antibody
- % inhibition (of survival) = (100% - % survival), cynomolgous monocytes, 5 µg/ml antibody [1]: 92%
- % survival of cynomolgous monocytes at 5 µg/ml antibody (150 ng/ml huCSF-1, CellTiterGlo) [1]: 8%

B4: Mab 1G10 (antibody, V domains shown)
VH: B1 VH with Q1R, T31S, T53S, D54G, S68R, R70S, N73D, K75R, M82V, Q99L
VL: KIVMTQSPKSMSVSVGERVSLSCKASEDVGTYVSWYQQKPEQSPKLLIYGSSNRYTGVPDRFTGSGSATDFTLTISSVQAEDLADYSCGQSFTYPTFGTGTKLEIK
notes: Murine monoclonal antibody
- % inhibition (of survival) = (100% - % survival), cynomolgous monocytes, 5 µg/ml antibody [1]: 98%
- % survival of cynomolgous monocytes at 5 µg/ml antibody (150 ng/ml huCSF-1, CellTiterGlo) [1]: 2%
- binding result [2]: no binding (tested: up to 2000 nM D1-D3)
